Source: paper PMC7295792, “Atomic-resolution mapping of transcription factor-DNA interactions by femtosecond laser crosslinking and mass spectrometry”
Numbering of substitutions follows the chain as printed.

Columns and labels:
[1] = biological target: TBP (TATA-box binding protein) (Homo sapiens, UniProt P20226 1-339); assay: femtosecond UV laser crosslinking, western blot; 2 mM MgCl2; 50 nJ, 1.25 J; NF1 binding buffer: 5 mM Tris-Cl pH 8.0, 90 mM NaCl (200 mM for EMSA and Fig. 2d), 0.5 mM EDTA, 5% glycerol, 0.55 mM beta-mercaptoethanol, 1 ug BSA; TBP: same + 2 mM MgCl2; 25 min, room temperature; conditions: protein: commercial; label: 5'-biotin on both strands
Chain of TBP (TATA-box binding protein) (P20226 whole entry): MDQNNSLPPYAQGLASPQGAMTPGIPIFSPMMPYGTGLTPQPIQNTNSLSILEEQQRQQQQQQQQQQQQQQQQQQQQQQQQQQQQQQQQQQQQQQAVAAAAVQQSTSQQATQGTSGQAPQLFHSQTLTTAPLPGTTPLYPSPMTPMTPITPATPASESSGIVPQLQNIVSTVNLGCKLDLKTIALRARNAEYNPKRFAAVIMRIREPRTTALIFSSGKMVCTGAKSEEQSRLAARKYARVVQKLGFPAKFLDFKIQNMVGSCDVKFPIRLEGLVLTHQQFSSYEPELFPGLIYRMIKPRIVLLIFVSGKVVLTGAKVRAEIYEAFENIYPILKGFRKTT

NF1 (nuclear factor 1/C) [2] = biological target: T1, NF1 (nuclear factor 1/C) (Sus scrofa (porcine), UniProt P21999 1-506); assay: EMSA; 200 mM NaCl; protein:DNA 2.1:1 to 11:1; NF1 binding buffer: 5 mM Tris-Cl pH 8.0, 90 mM NaCl (200 mM for EMSA and Fig. 2d), 0.5 mM EDTA, 5% glycerol, 0.55 mM beta-mercaptoethanol, 1 ug BSA; TBP: same + 2 mM MgCl2; 25 min, room temperature; conditions: protein: recombinant; tags: 6xHis; chain copies: 2; label: 5'-biotin on both strands
T1 sequence (P21999 whole entry): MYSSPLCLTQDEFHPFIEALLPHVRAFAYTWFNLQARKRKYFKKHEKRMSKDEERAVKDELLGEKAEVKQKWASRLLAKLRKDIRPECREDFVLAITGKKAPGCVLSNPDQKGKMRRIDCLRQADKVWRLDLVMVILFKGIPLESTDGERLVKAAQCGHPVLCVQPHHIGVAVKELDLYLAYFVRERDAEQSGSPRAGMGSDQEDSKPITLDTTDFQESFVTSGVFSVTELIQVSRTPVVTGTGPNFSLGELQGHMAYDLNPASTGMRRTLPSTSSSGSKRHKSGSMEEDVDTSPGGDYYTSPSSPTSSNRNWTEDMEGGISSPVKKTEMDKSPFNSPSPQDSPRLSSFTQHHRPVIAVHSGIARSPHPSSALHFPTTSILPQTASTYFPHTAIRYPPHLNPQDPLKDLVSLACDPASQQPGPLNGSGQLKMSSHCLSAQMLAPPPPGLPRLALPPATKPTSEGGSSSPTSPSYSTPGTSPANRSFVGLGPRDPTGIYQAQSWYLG

NF1 (nuclear factor 1/C) [3] = biological target: T1, NF1 (nuclear factor 1/C); assay: femtosecond UV laser crosslinking, western blot; 200 mM NaCl; 50 nJ pulses, total energy titrated; NF1 binding buffer: 5 mM Tris-Cl pH 8.0, 90 mM NaCl (200 mM for EMSA and Fig. 2d), 0.5 mM EDTA, 5% glycerol, 0.55 mM beta-mercaptoethanol, 1 ug BSA; TBP: same + 2 mM MgCl2; 25 min, room temperature; conditions: protein: recombinant; tags: 6xHis; chain copies: 2; label: 5'-biotin on both strands

B1: TBP wild-type AdML TATAA oligo (dsDNA)
DNA 1: CCTGAAGGGGGGCTATAAAAGGGGGTGGGGGCGCG
DNA 2: CGCGCCCCCACCCCCTTTTATAGCCCCCCTTCAGG
[1]
  binding result: binds

B2: NF1 wild-type consensus oligo (dsDNA)
DNA 1: AATTCCTTTTTTTGGATTGAAGCCAATCGGATAATGAGG
DNA 2: CCTCATTATCCGATTGGCTTCAATCCAAAAAAAGGAATT
NF1 (nuclear factor 1/C) [2]
  binding result: binds

B3: NF1 wild-type oligo of Fig. 2d (dsDNA)
DNA 1: B2 DNA 1 with T3G, T13A, A31C, A33G
DNA 2: B2 DNA 2 with T7C, T9G, A27T, A37C
NF1 (nuclear factor 1/C) [3]
  binding result: binds
